Laboratory results published in paper PMC6614540.

Columns and labels:
[1] = target: Gh-TDH D78A mutant (Grimontia hollisae); test: native gel or EMSA; native PAGE, 10% polyacrylamide gel, no SDS, 4 °C, running buffer 90 mM Tris-base, 2.5 mM EDTA, 80 mM boric acid pH 8.0, 90 V for 3 h, Coomassie stain
[2] = target: Gh-TDH F159D mutant (Grimontia hollisae)
[3] = target: Gh-TDH F159D mutant (Grimontia hollisae); test: AUC; 1 mg/mL protein in 20 mM Tris-HCl pH 7.2, 42,000 rpm, 20 °C, 280 nm; c(s) distribution and apparent molecular mass
[4] = target: Gh-TDH F159D mutant (Grimontia hollisae); test: native gel or EMSA; native PAGE, 10% polyacrylamide gel, no SDS, 4 °C, running buffer 90 mM Tris-base, 2.5 mM EDTA, 80 mM boric acid pH 8.0, 90 V for 3 h, Coomassie stain
[5] = target: Gh-TDH Y53D mutant (Grimontia hollisae)
[6] = target: Gh-TDH Y53D mutant (Grimontia hollisae); test: AUC; 1 mg/mL protein in 20 mM Tris-HCl pH 7.2, 42,000 rpm, 20 °C, 280 nm; c(s) distribution and apparent molecular mass
[7] = target: Gh-TDH Y53D mutant (Grimontia hollisae); test: native gel or EMSA; native PAGE, 10% polyacrylamide gel, no SDS, 4 °C, running buffer 90 mM Tris-base, 2.5 mM EDTA, 80 mM boric acid pH 8.0, 90 V for 3 h, Coomassie stain
[8] = target: Gh-TDH Y53D/F159D double mutant (Grimontia hollisae)
[9] = target: Grimontia hollisae thermostable direct hemolysin, wild type (Grimontia hollisae); test: AUC; 1 mg/mL protein in 20 mM Tris-HCl pH 7.2, 42,000 rpm, 20 °C, 280 nm; c(s) distribution and apparent molecular mass

## Gh-TDH D78A mutant (natural protein)
[1]
  stoichiometry N: 4

## Gh-TDH F159D mutant (natural protein)
[2]
  hemolytic activity on rabbit erythrocytes, decrease against Gh-TDH^WT: 10 fold
[3]
  stoichiometry N: 2
[4]
  stoichiometry N: 2

## Gh-TDH Y53D mutant (natural protein)
[5]
  hemolytic activity on rabbit erythrocytes, decrease against Gh-TDH^WT: 20 fold
[6]
  stoichiometry N: 2
[7]
  stoichiometry N: 2

## Gh-TDH Y53D/F159D double mutant (natural protein)
[8]
  hemolytic activity on rabbit erythrocytes, drop against Gh-TDH^WT: 200 fold

## Grimontia hollisae thermostable direct hemolysin, wild type (natural protein)
[9]
  stoichiometry N: 4
